Changes are numbered by the printed parent chain.
Legend:
[1] = target: T1, variant nuclease 7 substitutions D590G/E154G/E736G (P14R, D32R, I61R, E311R, D590G, E154G, E736G); assay: cell_activity; PAM 5'-TTTA-3'; details: tags: pcDNA3.1 expression
T1 chain: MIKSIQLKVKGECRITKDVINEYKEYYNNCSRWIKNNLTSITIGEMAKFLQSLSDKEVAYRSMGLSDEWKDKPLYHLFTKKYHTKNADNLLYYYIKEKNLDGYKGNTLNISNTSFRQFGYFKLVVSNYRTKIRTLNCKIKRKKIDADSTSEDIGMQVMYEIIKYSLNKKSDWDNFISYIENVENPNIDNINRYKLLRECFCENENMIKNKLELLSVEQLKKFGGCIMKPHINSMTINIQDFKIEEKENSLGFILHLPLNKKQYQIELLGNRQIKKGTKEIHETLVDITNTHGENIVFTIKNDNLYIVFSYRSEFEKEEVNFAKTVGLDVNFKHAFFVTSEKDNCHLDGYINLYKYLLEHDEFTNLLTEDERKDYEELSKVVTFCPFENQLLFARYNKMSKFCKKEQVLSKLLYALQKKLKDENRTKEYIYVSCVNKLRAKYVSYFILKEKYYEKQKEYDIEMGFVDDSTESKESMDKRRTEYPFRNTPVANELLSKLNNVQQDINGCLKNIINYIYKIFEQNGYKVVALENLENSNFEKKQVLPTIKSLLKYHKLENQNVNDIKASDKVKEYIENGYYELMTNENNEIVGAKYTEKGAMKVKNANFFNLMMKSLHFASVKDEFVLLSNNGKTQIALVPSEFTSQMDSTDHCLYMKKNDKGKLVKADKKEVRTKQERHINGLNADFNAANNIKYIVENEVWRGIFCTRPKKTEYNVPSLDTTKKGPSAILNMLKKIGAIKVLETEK
Protocol: (§1) Approximately 16 hours prior to transfection, 25,000 HEK293T cells in DMEM/10% FBS+Pen/Strep (D10 media) were plated into each well of a 96-well plate. On the day of transfection, the cells were 70-90% confluent. For each well to be transfected, a mixture of Lipofectamine 2000™ and Opti-MEM™ was prepared and incubated at room temperature for 5 minutes (Solution 1). After incubation, the Lipofectamine 2000™:Opti-MEM™ mixture was added to a separate mixture containing nuclease plasmid, RNA guide plasmid, and Opti-MEM™ (Solution 2). In the case of negative controls, the RNA guide plasmid was not included in Solution 2. Solutions 1 and 2 were mixed by pipetting up and down, then incubated at room temperature for 25 minutes. Following incubation, the Solution 1 and 2 mixture was added dropwise to each well of a 96-well plate containing the cells. Approximately 72 hours post transfection, cells were trypsinized by adding TrypLE™ to the center of each well and incubating at 37° C. for approximately 5 minutes. D10 media was then added to each well and mixed to resuspend cells. The resuspended cells were centrifuged at 500 g for 10 minutes to obtain a pellet, and the supernatant was discarded. The cell pellet was then resuspended in QuickExtract™ buffer (Lucigen®), and cells were incubated at 65° C. for 15 minutes, 68° C. for 15 minutes, and 98° C. for 10 minutes.
(§2) This Example describes assessment of indel activity at multiple target sites using the wild-type polypeptide of SEQ ID NO: 3 or variant polypeptides of Table 4. The variant polypeptides were cloned into a pcDNA3.1 backbone (Invitrogen), and the cells were transfected as described in Example 7.
(§3) The percentage of NGS reads containing indels (% indels) were calculated. For each variant polypeptide and target, % indels were averaged across two bioreplicates and two technical replicates. These values were then compared to % indels of the wild-type polypeptide of SEQ ID NO: 3.

[2] = target: T2, variant nuclease D55G/E736G combination (P14R, D32R, I61R, E311R, D55G, E736G); assay: cell_activity; PAM 5'-TTTA-3'; details: tags: pcDNA3.1 expression
T2 chain: T1 chain with D55G, G154E, G590D
Protocol: as §1, §2, §3

B1: VEGFA crRNA ; VEGFA target (ssRNA ; dsDNA)
RNA: CUUGUUGUAUAUGUCCUUUUAUAGGUAUUAAACAACUCCAGACCACCAAUGGGCAC
DNA 1: TCCAGACCACCAATGGGCAC
DNA 2: GTGCCCATTGGTGGTCTGGA
[1]
  indel activity: 3.13 fold of WT
[2]
  indel activity: 3.06 fold of WT

Source: patent US20240035010, “COMPOSITIONS COMPRISING A VARIANT POLYPEPTIDE AND USES THEREOF” (Arbor Biotechnologies, Inc., published 2024)
